In patent US20200157174A1 (DRAGONFLY THERAPEUTICS, published 2020):

Key:
Experiment in all cases: ELISA on coated NKG2D-Fc;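 further: titrated NKG2D-binding domains on plate-bound human, mouse or cynomolgus NKG2D ectodomain–human IgG1 Fc fusions, detected with HRP anti-human kappa secondary and TMB, absorbance at 450 nm corrected at 540 nm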
[1] = target: T1, recombinant human NKG2D-Fc (human, UniProt P26718 73-216)
T1 construct: extracellular domain; also called human NKG2D-Fc fusion protein; NKG2D-Fc-biotin; not shown: human IgG1 Fc domain
T1 sequence (looked up): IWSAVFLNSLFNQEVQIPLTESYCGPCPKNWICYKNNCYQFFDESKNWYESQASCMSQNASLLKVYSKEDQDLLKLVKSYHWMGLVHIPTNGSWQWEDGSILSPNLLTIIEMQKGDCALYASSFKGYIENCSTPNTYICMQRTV

[2] = target: T2, recombinant cynomolgus NKG2D-Fc (cynomolgus; human, UniProt P61252 73-216)
T2 construct: extracellular domain; also called cynomolgus NKG2D-Fc fusion protein; not shown: human IgG1 Fc domain
T2 sequence (looked up): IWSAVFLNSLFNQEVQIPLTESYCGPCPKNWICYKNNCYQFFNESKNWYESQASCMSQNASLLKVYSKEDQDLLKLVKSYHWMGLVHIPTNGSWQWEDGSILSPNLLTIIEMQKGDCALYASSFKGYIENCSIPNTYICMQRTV

[3] = target: T3, recombinant mouse NKG2D-Fc (mouse; human, UniProt O54709 90-232)
T3 construct: extracellular domain; also called mouse NKG2D-Fc fusion protein; Mouse NKG2D-Fc-biotin; not shown: human IgG1 Fc domain
T3 sequence (looked up): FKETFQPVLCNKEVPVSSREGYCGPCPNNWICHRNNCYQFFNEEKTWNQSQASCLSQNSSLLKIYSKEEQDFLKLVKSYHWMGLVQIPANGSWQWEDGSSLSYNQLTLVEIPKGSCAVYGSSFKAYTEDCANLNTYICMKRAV

Measured: binding result

B1: ADI-27705 (antibody, V domains shown)
VH: QVQLQQWGAGLLKPSETLSLTCAVYGGSFSGYYWSWIRQPPGKGLEWIGEIDHSGSTNYNPSLKSRVTISVDTSKNQFSLKLSSVTAADTAVYYCARARGPWSFDPWGQGTLVTVSS
VL: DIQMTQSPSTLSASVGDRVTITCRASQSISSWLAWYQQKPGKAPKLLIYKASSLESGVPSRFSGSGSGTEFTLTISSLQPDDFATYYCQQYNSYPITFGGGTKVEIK
binds: [1] | [2] | [3]

B2: ADI-29403 (antibody, V domains shown)
VH: QVQLQQWGAGLLKPSETLSLTCAVYGGSFSGYYWSWIRQPPGKGLEWIGEIDHSGSTNYNPSLKSRVTISVDTSKNQFSLKLSSVTAADTAVYYCARARGPWSFDPWGQGTLVTVSS
VL: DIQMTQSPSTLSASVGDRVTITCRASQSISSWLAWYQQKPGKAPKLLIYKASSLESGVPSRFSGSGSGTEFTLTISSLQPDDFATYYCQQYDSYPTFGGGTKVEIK
binds: [1] | [2] | [3]

B3: ADI-28226 (antibody, V domains shown)
VH: QVQLQQWGAGLLKPSETLSLTCAVYGGSFSGYYWSWIRQPPGKGLEWIGEIDHSGSTNYNPSLKSRVTISVDTSKNQFSLKLSSVTAADTAVYYCARARGPWSFDPWGQGTLVTVSS
VL: DIQMTQSPSTLSASVGDRVTITCRASQSISSWLAWYQQKPGKAPKLLIYKASSLESGVPSRFSGSGSGTEFTLTISSLQPDDFATYYCQQYGSFPITFGGGTKVEIK
notes: also called C26
binds: [1] | [2] | [3]

B4: ADI-29424 (antibody, V domains shown)
VH: QVQLQQWGAGLLKPSETLSLTCAVYGGSFSGYYWSWIRQPPGKGLEWIGEIDHSGSTNYNPSLKSRVTISVDTSKNQFSLKLSSVTAADTAVYYCARARGPWSFDPWGQGTLVTVSS
VL: DIQMTQSPSTLSASVGDRVTITCRASQSISSWLAWYQQKPGKAPKLLIYKASSLESGVPSRFSGSGSGTEFTLTISSLQPDDFATYYCQQYDSFITFGGGTKVEIK
binds: [1] | [2] | [3]

B5: ADI-29419 (antibody, V domains shown)
VH: QVQLQQWGAGLLKPSETLSLTCAVYGGSFSGYYWSWIRQPPGKGLEWIGEIDHSGSTNYNPSLKSRVTISVDTSKNQFSLKLSSVTAADTAVYYCARARGPWSFDPWGQGTLVTVSS
VL: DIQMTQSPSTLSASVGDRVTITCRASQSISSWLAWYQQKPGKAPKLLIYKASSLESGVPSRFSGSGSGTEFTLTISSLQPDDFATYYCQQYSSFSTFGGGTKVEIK
binds: [1] | [2] | [3]

B6: ADI-29405 (antibody, V domains shown)
VH: QVQLQQWGAGLLKPSETLSLTCAVYGGSFSGYYWSWIRQPPGKGLEWIGEIDHSGSTNYNPSLKSRVTISVDTSKNQFSLKLSSVTAADTAVYYCARARGPWSFDPWGQGTLVTVSS
VL: DIQMTQSPSTLSASVGDRVTITCRASQSISSWLAWYQQKPGKAPKLLIYKASSLESGVPSRFSGSGSGTEFTLTISSLQPDDFATYYCQQYGSFPTFGGGTKVEIK
binds: [1] | [2] | [3]

B7: ADI-29401 (antibody, V domains shown)
VH: QVQLQQWGAGLLKPSETLSLTCAVYGGSFSGYYWSWIRQPPGKGLEWIGEIDHSGSTNYNPSLKSRVTISVDTSKNQFSLKLSSVTAADTAVYYCARARGPWSFDPWGQGTLVTVSS
VL: DIQMTQSPSTLSASVGDRVTITCRASQSIGSWLAWYQQKPGKAPKLLIYKASSLESGVPSRFSGSGSGTEFTLTISSLQPDDFATYYCQQYDIYPTFGGGTKVEIK
binds: [1] | [2] | [3]

B8: ADI-29425 (antibody, V domains shown)
VH: QVQLQQWGAGLLKPSETLSLTCAVYGGSFSGYYWSWIRQPPGKGLEWIGEIDHSGSTNYNPSLKSRVTISVDTSKNQFSLKLSSVTAADTAVYYCARARGPWSFDPWGQGTLVTVSS
VL: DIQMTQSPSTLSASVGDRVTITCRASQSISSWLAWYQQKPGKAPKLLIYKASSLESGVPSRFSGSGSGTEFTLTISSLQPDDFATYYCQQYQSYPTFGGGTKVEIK
binds: [1] | [2] | [3]

B9: ADI-27741 (antibody, V domains shown)
VH: QVQLQQWGAGLLKPSETLSLTCAVYGGSFSGYYWSWIRQPPGKGLEWIGEIDHSGSTNYNPSLKSRVTISVDTSKNQFSLKLSSVTAADTAVYYCARARGPWSFDPWGQGTLVTVSS
VL: DIQMTQSPSTLSASVGDRVTITCRASQSIGSWLAWYQQKPGKAPKLLIYKASSLESGVPSRFSGSGSGTEFTLTISSLQPDDFATYYCQQSNSYYTFGGGTKVEIK
binds: [1] | [2] | [3]

B10: ADI-27743 (antibody, V domains shown)
VH: QVQLQQWGAGLLKPSETLSLTCAVYGGSFSGYYWSWIRQPPGKGLEWIGEIDHSGSTNYNPSLKSRVTISVDTSKNQFSLKLSSVTAADTAVYYCARARGPWSFDPWGQGTLVTVSS
VL: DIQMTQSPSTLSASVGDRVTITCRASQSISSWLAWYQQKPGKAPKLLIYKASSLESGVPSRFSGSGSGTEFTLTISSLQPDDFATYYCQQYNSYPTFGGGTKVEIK
binds: [1] | [2] | [3]

B11: ADI-29447 (antibody, V domains shown)
VH: QVQLQQWGAGLLKPSETLSLTCAVYGGSFSGYYWSWIRQPPGKGLEWIGEIDHSGSTNYNPSLKSRVTISVDTSKNQFSLKLSSVTAADTAVYYCARARGPWSFDPWGQGTLVTVSS
VL: DIQMTQSPSTLSASVGDRVTITCRASQSISSWLAWYQQKPGKAPKLLIYKASSLESGVPSRFSGSGSGTEFTLTISSLQPDDFATYYCQQYDTFITFGGGTKVEIK
notes: also called F47
binds: [1] | [2] | [3]

B12: ADI-27740 (antibody, V domains shown)
VH: QVQLQQWGAGLLKPSETLSLTCAVYGGSFSGYYWSWIRQPPGKGLEWIGEIDHSGSTNYNPSLKSRVTISVDTSKNQFSLKLSSVTAADTAVYYCARARGPWSFDPWGQGTLVTVSS
VL: DIQMTQSPSTLSASVGDRVTITCRASQSIGSWLAWYQQKPGKAPKLLIYKASSLESGVPSRFSGSGSGTEFTLTISSLQPDDFATYYCQQYHSFYTFGGGTKVEIK
notes: also called A40
binds: [1] | [2] | [3]

B13: ADI-29407 (antibody, V domains shown)
VH: QVQLQQWGAGLLKPSETLSLTCAVYGGSFSGYYWSWIRQPPGKGLEWIGEIDHSGSTNYNPSLKSRVTISVDTSKNQFSLKLSSVTAADTAVYYCARARGPWSFDPWGQGTLVTVSS
VL: DIQMTQSPSTLSASVGDRVTITCRASQSISSWLAWYQQKPGKAPKLLIYKASSLESGVPSRFSGSGSGTEFTLTISSLQPDDFATYYCQQYQSFPTFGGGTKVEIK
binds: [1] | [2] | [3]

B14: ADI-29399 (antibody, V domains shown)
VH: QVQLQQWGAGLLKPSETLSLTCAVYGGSFSGYYWSWIRQPPGKGLEWIGEIDHSGSTNYNPSLKSRVTISVDTSKNQFSLKLSSVTAADTAVYYCARARGPWSFDPWGQGTLVTVSS
VL: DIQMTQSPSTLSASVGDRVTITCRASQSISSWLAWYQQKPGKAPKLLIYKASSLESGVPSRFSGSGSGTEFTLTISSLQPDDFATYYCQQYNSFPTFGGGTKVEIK
binds: [1] | [2] | [3]

B15: ADI-29429 (antibody, V domains shown)
VH: QVQLQQWGAGLLKPSETLSLTCAVYGGSFSGYYWSWIRQPPGKGLEWIGEIDHSGSTNYNPSLKSRVTISVDTSKNQFSLKLSSVTAADTAVYYCARARGPWSFDPWGQGTLVTVSS
VL: DIQMTQSPSTLSASVGDRVTITCRASQSIGSWLAWYQQKPGKAPKLLIYKASSLESGVPSRFSGSGSGTEFTLTISSLQPDDFATYYCQQYELYSYTFGGGTKVEIK
binds: [1] | [2] | [3]

B16: ADI-29426 (antibody, V domains shown)
VH: QVQLQQWGAGLLKPSETLSLTCAVYGGSFSGYYWSWIRQPPGKGLEWIGEIDHSGSTNYNPSLKSRVTISVDTSKNQFSLKLSSVTAADTAVYYCARARGPWSFDPWGQGTLVTVSS
VL: DIQMTQSPSTLSASVGDRVTITCRASQSIGSWLAWYQQKPGKAPKLLIYKASSLESGVPSRFSGSGSGTEFTLTISSLQPDDFATYYCQQYHSFPTFGGGTKVEIK
binds: [1] | [2] | [3]

B17: ADI-29404 (antibody, V domains shown)
VH: QVQLQQWGAGLLKPSETLSLTCAVYGGSFSGYYWSWIRQPPGKGLEWIGEIDHSGSTNYNPSLKSRVTISVDTSKNQFSLKLSSVTAADTAVYYCARARGPWSFDPWGQGTLVTVSS
VL: DIQMTQSPSTLSASVGDRVTITCRASQSISSWLAWYQQKPGKAPKLLIYKASSLESGVPSRFSGSGSGTEFTLTISSLQPDDFATYYCEQYDSYPTFGGGTKVEIK
notes: also called F04
binds: [1] | [2] | [3]

B18: ADI-29421 (antibody, V domains shown)
VH: QVQLQQWGAGLLKPSETLSLTCAVYGGSFSGYYWSWIRQPPGKGLEWIGEIDHSGSTNYNPSLKSRVTISVDTSKNQFSLKLSSVTAADTAVYYCARARGPWSFDPWGQGTLVTVSS
VL: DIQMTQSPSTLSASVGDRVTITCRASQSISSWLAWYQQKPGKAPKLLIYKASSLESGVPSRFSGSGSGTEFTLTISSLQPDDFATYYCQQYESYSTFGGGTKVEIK
binds: [1] | [2] | [3]
